Results published in patent publication US20180371093A1 (Novartis, published 2018).

How the values were obtained:
[1] = molecular target: T1, Programmed Death 1 (PD-1) (UniProt Q15116 25-167, limits assumed); assay: rank among the 16 humanized clones by FACS binding data
[2] = molecular target: T1, Programmed Death 1 (PD-1); assay: rank in competition binding against labelled murine mAb BAP049, 1st experiment
[3] = molecular target: T1, Programmed Death 1 (PD-1); assay: rank in competition binding against labelled murine mAb BAP049, 2nd experiment
[4] = molecular target: T1, Programmed Death 1 (PD-1); assay: FACS ligand blocking: binding of PD-L1-Ig to PD-1 at increasing mAb concentration (legend paragraph 212 names 'PD-L1-Ig and PD-L2-Ig' for FIG. 8A)

T1 sequence (Q15116 25-167 limits assumed): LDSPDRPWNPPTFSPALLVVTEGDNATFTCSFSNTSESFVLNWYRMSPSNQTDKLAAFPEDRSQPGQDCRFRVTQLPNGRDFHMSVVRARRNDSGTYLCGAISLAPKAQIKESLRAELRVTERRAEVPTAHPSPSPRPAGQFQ

Row | Binder | Ranking FACS data [1] | Competition Binding 1st exp. (rank) [2] | Competition Binding 2nd exp. (rank) [3] | IC50 (read off the curve) [4]
1 | BAP049-hum02 (antibody, human IgG4 S228P, kappa, V domains shown, also called clone 2) VH: EVQLVQSGAEVKKPGESLRISCKGSGYTFTTYWMHWVRQATGQGLEWMGNIYPGTGGSNFDEKFKNRVTITADKSTSTAYMELSSLRSEDTAVYYCTRWTTGTGAYWGQGTTVTVSS VL: DIQMTQSPSSLSASVGDRVTITCKSSQSLLDSGNQKNFLTWYQQKPGQAPRLLIYWASTRESGIPPRFSGSGYGTDFTLTINNIESEDAAYYFCQNDYSYPYTFGQGTKVEIKR | 6 rank | 3 rank | 2 rank | 
2 | BAP049-hum12 (antibody, human IgG4 S228P, kappa, V domains shown, also called clone 12) VH: EVQLVQSGAEVKKPGESLRISCKGSGYTFTTYWMHWVRQATGQGLEWMGNIYPGTGGSNFDEKFKNRVTITADKSTSTAYMELSSLRSEDTAVYYCTRWTTGTGAYWGQGTTVTVSS VL: DIQMTQSPSSLSASVGDRVTITCKSSQSLLDSGNQKNFLTWYLQKPGQSPQLLIYWASTRESGVPSRFSGSGSGTDFTFTISSLEAEDAATYYCQNDYSYPYTFGQGTKVEIKR | 3 rank | 8 rank | 16 rank | 
3 | BAP049-hum13 (antibody, human IgG4 S228P, kappa, also called clone 13) heavy chain: not shown light chain: DVVMTQSPLSLPVTLGQPASISCKSSQSLLDSGNQKNFLTWYQQKPGKAPKLLIYWASTRESGVPSRFSGSGSGTDFTFTISSLEAEDAATYYCQNDYSYPYTFGQGTKVEIKRTVAAPSVFIFPPSDEQLKSGTASVVCLLNNFYPREAKVQWKVDNALQSGNSQESVTEQDSKDSTYSLSSTLTLSKADYEKHKVYACEVTHQGLSSPVTKSFNRGEC | 6 rank | 1 rank | 1 rank | 
4 | BAP049-hum16 (antibody, human IgG4 S228P, kappa, V domains shown, also called clone 16) VH: EVQLVQSGAEVKKPGESLRISCKGSGYTFTTYWMHWVRQAPGQGLEWMGNIYPGTGGSNFDEKFKNRFTISRDNSKNTLYLQMNSLRAEDTAVYYCTRWTTGTGAYWGQGTTVTVSS VL: EIVLTQSPDFQSVTPKEKVTITCKSSQSLLDSGNQKNFLTWYQQKPGQAPRLLIYWASTRESGVPSRFSGSGSGTDFTFTISSLEAEDAATYYCQNDYSYPYTFGQGTKVEIKR | 15 rank | 16 rank | 15 rank | 
5 | BAP049-hum03 (antibody, human IgG4 S228P, kappa, V domains shown, also called clone 3) VH: EVQLVQSGAEVKKPGESLRISCKGSGYTFTTYWMHWIRQSPSRGLEWLGNIYPGTGGSNFDEKFKNRFTISRDNSKNTLYLQMNSLRAEDTAVYYCTRWTTGTGAYWGQGTTVTVSS VL: DIQMTQSPSSLSASVGDRVTITCKSSQSLLDSGNQKNFLTWYQQKPGQAPRLLIYWASTRESGIPPRFSGSGYGTDFTLTINNIESEDAAYYFCQNDYSYPYTFGQGTKVEIKR | 7 rank | 8 rank | 14 rank | 
6 | BAP049-hum15 (antibody, human IgG4 S228P, kappa, also called clone 15) heavy chain: not shown light chain: EIVLTQSPDFQSVTPKEKVTITCKSSQSLLDSGNQKNFLTWYQQKPGQAPRLLIYWASTRESGVPSRFSGSGSGTDFTFTISSLEAEDAATYYCQNDYSYPYTFGQGTKVEIKRTVAAPSVFIFPPSDEQLKSGTASVVCLLNNFYPREAKVQWKVDNALQSGNSQESVTEQDSKDSTYSLSSTLTLSKADYEKHKVYACEVTHQGLSSPVTKSFNRGEC | 6 rank | 7 rank | 15 rank | 
7 | BAP049-hum11 (antibody, human IgG4 S228P, kappa, Humanized mAb) heavy: not shown light: EIVLTQSPATLSLSPGERATLSCKSSQSLLDSGNQKNFLTWYQQKPGQAPRLLIYWASTRESGVPSRFSGSGSGTDFTFTISSLEAEDAATYYCQNDYSYPYTFGQGTKVEIKRTVAAPSVFIFPPSDEQLKSGTASVVCLLNNFYPREAKVQWKVDNALQSGNSQESVTEQDSKDSTYSLSSTLTLSKADYEKHKVYACEVTHQGLSSPVTKSFNRGEC | 6 rank | 4 rank | > 4 rank | 
8 | BAP049-hum10 (antibody, human IgG4 S228P, kappa, Humanized mAb) heavy: not shown light: EIVLTQSPATLSLSPGERATLSCKSSQSLLDSGNQKNFLTWYQQKPGQAPRLLIYWASTRESGVPSRFSGSGSGTDFTFTISSLEAEDAATYYCQNDYSYPYTFGQGTKVEIKRTVAAPSVFIFPPSDEQLKSGTASVVCLLNNFYPREAKVQWKVDNALQSGNSQESVTEQDSKDSTYSLSSTLTLSKADYEKHKVYACEVTHQGLSSPVTKSFNRGEC | 7 rank | 6 rank | > 4 rank | ~1 µg/mL
9 | BAP049-hum01 (antibody, human IgG4 S228P, kappa, V domains shown, Humanized mAb) VH: EVQLVQSGAEVKKPGESLRISCKGSGYTFTTYWMHWVRQATGQGLEWMGNIYPGTGGSNFDEKFKNRVTITADKSTSTAYMELSSLRSEDTAVYYCTRWTTGTGAYWGQGTTVTVSS VL: EIVLTQSPATLSLSPGERATLSCKSSQSLLDSGNQKNFLTWYQQKPGQAPRLLIYWASTRESGVPSRFSGSGSGTEFTLTISSLQPDDFATYYCQNDYSYPYTFGQGTKVEIKR | 2 rank | 7 rank | 2 rank | ~1 µg/mL
10 | BAP049-hum07 (antibody, human IgG4 S228P, kappa, also called clone 7) heavy chain: not shown light chain: EIVLTQSPATLSLSPGERATLSCKSSQSLLDSGNQKNFLTWYQQKPGKAPKLLIYWASTRESGVPSRFSGSGSGTDFTFTISSLEAEDAATYYCQNDYSYPYTFGQGTKVEIKRTVAAPSVFIFPPSDEQLKSGTASVVCLLNNFYPREAKVQWKVDNALQSGNSQESVTEQDSKDSTYSLSSTLTLSKADYEKHKVYACEVTHQGLSSPVTKSFNRGEC | 4 rank | 7 rank | > 4 rank | 
11 | BAP049-hum06 (antibody, human IgG4 S228P, kappa, also called clone 6) heavy chain: not shown light chain: DIVMTQTPLSLPVTPGEPASISCKSSQSLLDSGNQKNFLTWYQQKPGQAPRLLIYWASTRESGVPSRFSGSGSGTDFTFTISSLEAEDAATYYCQNDYSYPYTFGQGTKVEIKRTVAAPSVFIFPPSDEQLKSGTASVVCLLNNFYPREAKVQWKVDNALQSGNSQESVTEQDSKDSTYSLSSTLTLSKADYEKHKVYACEVTHQGLSSPVTKSFNRGEC | 1 rank | 7 rank | 3 rank | 
12 | BAP049-hum04 (antibody, human IgG4 S228P, kappa, V domains shown, also called clone 4) VH: EVQLVQSGAEVKKPGESLRISCKGSGYTFTTYWMHWIRQSPSRGLEWLGNIYPGTGGSNFDEKFKNRFTISRDNSKNTLYLQMNSLRAEDTAVYYCTRWTTGTGAYWGQGTTVTVSS VL: EIVLTQSPATLSLSPGERATLSCKSSQSLLDSGNQKNFLTWYQQKPGKAPKLLIYWASTRESGVPSRFSGSGSGTDFTFTISSLQPEDIATYYCQNDYSYPYTFGQGTKVEIKR | 14 rank | 15 rank | 15 rank | 
13 | BAP049-hum08 (antibody, human IgG4 S228P, kappa, Humanized mAb) heavy: not shown light: EIVLTQSPDFQSVTPKEKVTITCKSSQSLLDSGNQKNFLTWYQQKPGQAPRLLIYWASTRESGVPSRFSGSGSGTDFTFTISSLEAEDAATYYCQNDYSYPYTFGQGTKVEIKRTVAAPSVFIFPPSDEQLKSGTASVVCLLNNFYPREAKVQWKVDNALQSGNSQESVTEQDSKDSTYSLSSTLTLSKADYEKHKVYACEVTHQGLSSPVTKSFNRGEC | 7 rank | 7 rank | 4 rank | 
14 | BAP049-hum14 (antibody, human IgG4 S228P, kappa, also called clone 14) heavy chain: not shown light chain: EIVLTQSPATLSLSPGERATLSCKSSQSLLDSGNQKNFLTWYQQKPGQAPRLLIYWASTRESGVPSRFSGSGSGTDFTFTISSLEAEDAATYYCQNDYSYPYTFGQGTKVEIKRTVAAPSVFIFPPSDEQLKSGTASVVCLLNNFYPREAKVQWKVDNALQSGNSQESVTEQDSKDSTYSLSSTLTLSKADYEKHKVYACEVTHQGLSSPVTKSFNRGEC | 16 rank | 7 rank | 15 rank | 
15 | BAP049-hum05 (antibody, human IgG4 S228P, kappa, V domains shown, Humanized mAb) VH: EVQLVQSGAEVKKPGESLRISCKGSGYTFTTYWMHWVRQATGQGLEWMGNIYPGTGGSNFDEKFKNRVTITADKSTSTAYMELSSLRSEDTAVYYCTRWTTGTGAYWGQGTTVTVSS VL: EIVLTQSPATLSLSPGERATLSCKSSQSLLDSGNQKNFLTWYQQKPGKAPKLLIYWASTRESGVPSRFSGSGSGTDFTFTISSLQPEDIATYYCQNDYSYPYTFGQGTKVEIKR | 5 rank | 5 rank | > 4 rank | ~1 µg/mL
16 | BAP049-hum09 (antibody, human IgG4 S228P, kappa, Humanized mAb) heavy: not shown light: EIVLTQSPDFQSVTPKEKVTITCKSSQSLLDSGNQKNFLTWYQQKPGQAPRLLIYWASTRESGVPSRFSGSGSGTDFTFTISSLEAEDAATYYCQNDYSYPYTFGQGTKVEIKRTVAAPSVFIFPPSDEQLKSGTASVVCLLNNFYPREAKVQWKVDNALQSGNSQESVTEQDSKDSTYSLSSTLTLSKADYEKHKVYACEVTHQGLSSPVTKSFNRGEC | 7 rank | 2 rank | 4 rank | 
17 | Chi mAb (Tyr) (antibody, human IgG4 S228P, kappa, V domains shown, also called BAP049-chi-Y; Chi (Tyr)) VH: QVQLQQSGSELVRPGASVKLSCKASGYTFTTYWMHWVRQRPGQGLEWIGNIYPGTGGSNFDEKFKNRTSLTVDTSSTTAYMHLASLTSEDSAVYYCTRWTTGTGAYWGQGTTVTVSS VL: DIVMTQSPSSLTVTAGEKVTMSCKSSQSLLDSGNQKNFLTWYQQKPGQPPKLLIFWASTRESGVPDRFTGSGSVTDFTLTISSVQAEDLAVYYCQNDYSYPYTFGQGTKVEIKR |  |  |  | ~0.9 µg/mL
18 | Mu mAb (antibody, V domains shown, Unlabelled when its concentration is varied; also called murine anti-PD-1 mAb BAP049; Mu mAb control) VH: QVQLQQSGSELVRPGASVKLSCKASGYTFTTYWMHWVRQRPGQGLEWIGNIYPGTGGSNFDEKFKNRTSLTVDTSSTTAYMHLASLTSEDSAVYYCTRWTTGTGAYWGQGTLVTVSA VL: DIVMTQSPSSLTVTAGEKVTMSCKSSQSLLDSGNQKNFLTWYQQKPGQPPKLLIFWASTRESGVPDRFTGSGSVTDFTLTISSVQAEDLAVYYCQNDYSYPCTFGGGTKLEIK |  |  |  | ~0.7 µg/mL
